One series deals with DrDM15 (zebrafish) (UniProt F1R0U5). Kind of series: EMSA. Conditions: 5' m7G cap (Vaccinia capping), EMSA: 20 mM Tris-HCl pH 8, 150 mM NaCl, 10% glycerol, 1 mM DTT, 0.5 ug tRNA, 1 ug BSA, pM RNA (95 C, snap cooled), native 7% PAGE, 0.5X TBE. For orientation: In EMSA bound probe runs differently from free probe, usually more slowly.
Series [1] concerns the target T1, DmDM15 (Drosophila melanogaster, UniProt Q9VAW5).
T1 construct: gene larp; C-terminal DM15 region; E. coli BL21(DE3); His6-MBP tag removed with TEV protease; monomer
Kind of series: differential scanning fluorimetry (SYPRO Orange). Format: binding. Particulars: 5 uM protein, 500 uM ligand; 50 mM Tris-HCl pH 8, 100 mM NaCl, 0.6 mM DTT, 10% glycerol.

Another series deals with T2, DrDM15 (Danio rerio, UniProt A0A8M9P457).
T2 construct: gene larp1; C-terminal DM15 region, residues 754-904; E. coli BL21(DE3); His6-MBP tag removed with TEV protease; Gly6 linker after TEV site; monomer
As to the kind of experiment: differential scanning fluorimetry (SYPRO Orange). Format: binding. Conditions: 5 uM protein, 500 uM ligand; 50 mM Tris-HCl pH 8, 100 mM NaCl, 0.6 mM DTT, 10% glycerol. (In DSF a fluorescence change marks the thermal transition of the protein.)

Series [2] concerns the target T3, HsDM15 (Homo sapiens, UniProt Q6PKG0).
T3 construct: gene LARP1; C-terminal DM15 region; E. coli BL21(DE3); His6-MBP tag removed with TEV protease; monomer; residues 796-941 used in simulation only
As to the kind of experiment: differential scanning fluorimetry (SYPRO Orange). Format: binding. Conditions: 5 uM protein, 500 uM ligand; 50 mM Tris-HCl pH 8, 100 mM NaCl, 0.6 mM DTT, 10% glycerol.

Series [3] addresses DmDM15 (fruit fly, UniProt A0A0B4K7Y7 1330-1481). Kind of series: EMSA; EMSA: 20 mM Tris-HCl pH 8, 150 mM NaCl, 10% glycerol, 1 mM DTT, 0.5 ug tRNA, 1 ug BSA, pM RNA (95 C, snap cooled), 0.5-1 h on ice; native 7% PAGE, 0.5X TBE. Particulars: protein: recombinant, tags: His6-MBP removed by TEV, label: 32P in cap.
For series [4], the target named is T4, HsDM15 (Homo sapiens, UniProt Q6PKG0-3 796-946). The series is described as above. Conditions: protein: recombinant, tags: His6-MBP removed by TEV, label: 32P in cap.
The target in series [5] is T4, HsDM15. Kind of series: EMSA; stated only as picomolar affinity; EMSA: 20 mM Tris-HCl pH 8, 150 mM NaCl, 10% glycerol, 1 mM DTT, 0.5 ug tRNA, 1 ug BSA, pM RNA (95 C, snap cooled), 0.5-1 h on ice; native 7% PAGE, 0.5X TBE. Conditions: protein: recombinant; tags: His6-MBP removed by TEV; label: 32P in cap.
[6] abbreviates: 5' end paired in one predicted fold.

Substitutions are numbered along the chain they refer to.

DmDM15 (fruit fly, UniProt A0A0B4K7Y7 1330-1481), sequence (A0A0B4K7Y7 entry or part of it): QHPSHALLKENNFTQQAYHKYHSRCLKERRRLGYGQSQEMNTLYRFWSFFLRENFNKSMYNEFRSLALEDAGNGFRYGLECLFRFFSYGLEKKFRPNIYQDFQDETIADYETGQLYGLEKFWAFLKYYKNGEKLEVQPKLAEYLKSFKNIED
T1 sequence (Q9VAW5 1330-1481): as the sequence (A0A0B4K7Y7 entry or part of it) above
T2 sequence (A0A8M9P457 778-928): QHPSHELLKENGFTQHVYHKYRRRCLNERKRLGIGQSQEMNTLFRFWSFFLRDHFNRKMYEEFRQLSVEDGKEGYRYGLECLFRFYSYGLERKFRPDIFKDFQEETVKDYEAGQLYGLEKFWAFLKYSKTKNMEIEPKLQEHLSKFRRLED

For “CCUUCUCCCCGGCGGUUAGUGCUGAGAGUGCGGAGUGUGUGC [HsPABPC1 42-mer, capped]”, the Kd – broadly, the equilibrium constant for the complex coming apart – with DrDM15 (zebrafish) (0.5-1 h on …) turned out to be 97000 pM.
The molecule “CCUCUUUUCCGCUUAUCUCUUUGAGAUAAAUGCAUAUUUUUU [HsRPS6_Stem, capped]” returned an equilibrium dissociation constant (Kd) with DrDM15 (zebrafish) (0.5-1 h on …) of 7900 pM.
Consider “CCUUCUCCCCGCUUAUCUCUUUGAGAUAAAUGCAUAUUUUUU [HsPABPC1_Stem, capped]”, for which the Kd with DrDM15 (zebrafish) (0.5-1 h on …) turned out to be 6900 pM.
`C[n+]1cn([C@@H]2O[C@H](COP(=O)(O)OP(=O)(O)OP(=O)(O)O)[C@@H](O)[C@H]2O)c2nc(N)[nH]c(=O)c21` [m^7GTP]: the Tm entry on DmDM15 [1], on DrDM15 and at HsDM15 [2] was “thermal stabilization of all three orthologs in the presence of a cap analog (Fig 3D)” each time.
Molecule “CCUCUUUUCCGUGGCGCCUCGGAGGCGUUCAGCUGCUUCAAG [HsRPS6 42-mer, capped]” displayed a Kd with DrDM15 (zebrafish) (0.5-1 h on …) of 10000 pM.
In the case of “CUUUUGCCAUUGUCAGCCGACGAAGUGCUUUAACCCAAACUA [DmRPL30 42-mer, capped]”, in the series with DrDM15 (zebrafish) (stated only as picomolar affinity, 0.5-1 h on ice), the dissociation constant (Kd) is less than 1000 pM.

B1: HsRPS6_Stem, capped (structured_RNA)
RNA: CCUCUUUUCCGCUUAUCUCUUUGAGAUAAAUGCAUAUUUUUU
modifications: 5' m7G cap (Vaccinia capping)
As to B1, the equilibrium dissociation constant (Kd) in the series with DmDM15 [3] (hairpin (predicted)) is 29 ± 0.06 nM; with HsDM15 [4] (hairpin (predicted)) it was 1.9 ± 0.05 nM.

B2: HsPABPC1_Stem, capped (structured_RNA)
RNA: B1 RNA with C4U, U5C, U7C, U8C
modifications: 5' m7G cap (Vaccinia capping)
For the molecule B2, the dissociation constant Kd with DmDM15 [3] (hairpin (predicted)) was 6.1 ± 0.03 nM; with HsDM15 [4] (hairpin (predicted)), 1.5 ± 0.04 nM.

B3: DmRPL30 42-mer, capped (ssRNA)
RNA: CUUUUGCCAUUGUCAGCCGACGAAGUGCUUUAACCCAAACUA
modifications: 5' m7G cap (Vaccinia capping)
For B3, the equilibrium dissociation constant (Kd) in the series with HsDM15 [5] was less than 1 nM.

B4: HsRPS6 42-mer, capped (structured_RNA)
RNA: CCUCUUUUCCGUGGCGCCUCGGAGGCGUUCAGCUGCUUCAAG
modifications: 5' m7G cap (Vaccinia capping)
Regarding B4, the equilibrium dissociation constant (Kd) is 58 ± 0.02 nM with DmDM15 [3] (hairpin (predicted)) and 3.9 ± 0.2 nM with HsDM15 [4] (hairpin (predicted)).

B5: HsPABPC1 42-mer, capped (structured_RNA)
RNA: CCUUCUCCCCGGCGGUUAGUGCUGAGAGUGCGGAGUGUGUGC
modifications: 5' m7G cap (Vaccinia capping)
Consider B5, for which the equilibrium dissociation constant (Kd) with DmDM15 [3] (setting [6]) is 140 ± 0.02 nM; with HsDM15 [4] (setting [6]) it was 18 ± 0.06 nM.

Values taken from paper PMC11349179, “Comparative analysis of the LARP1 C-terminal DM15 region through Coelomate evolution” (PLOS ONE, 2024).
